From patent publication US20200283523A1

Target: C1Q (UniProt P02745)
Assay: ELISA, antibody coated on the plate, C1q titrated (axis [C1q] nM), anti-human C1q-HRP detection

C1Q, sequence (P02745 23-245 limits assumed, chain 1 of 3): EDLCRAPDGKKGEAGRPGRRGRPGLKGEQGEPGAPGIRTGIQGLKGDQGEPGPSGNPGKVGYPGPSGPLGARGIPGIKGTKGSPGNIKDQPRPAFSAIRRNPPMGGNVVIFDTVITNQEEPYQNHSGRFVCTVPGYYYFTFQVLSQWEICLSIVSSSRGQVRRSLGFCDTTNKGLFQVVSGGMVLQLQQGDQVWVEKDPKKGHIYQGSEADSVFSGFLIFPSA
C1Q, sequence (P02746 28-253 limits assumed, chain 2 of 3, further chain): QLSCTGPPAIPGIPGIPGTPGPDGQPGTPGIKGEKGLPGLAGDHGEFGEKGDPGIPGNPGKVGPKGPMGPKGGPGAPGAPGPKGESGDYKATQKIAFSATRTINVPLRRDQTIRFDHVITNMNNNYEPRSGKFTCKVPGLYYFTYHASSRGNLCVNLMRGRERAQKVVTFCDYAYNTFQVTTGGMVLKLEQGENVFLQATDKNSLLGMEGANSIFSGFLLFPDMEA
C1Q, sequence (P02747 29-245 limits assumed, chain 3 of 3, further chain): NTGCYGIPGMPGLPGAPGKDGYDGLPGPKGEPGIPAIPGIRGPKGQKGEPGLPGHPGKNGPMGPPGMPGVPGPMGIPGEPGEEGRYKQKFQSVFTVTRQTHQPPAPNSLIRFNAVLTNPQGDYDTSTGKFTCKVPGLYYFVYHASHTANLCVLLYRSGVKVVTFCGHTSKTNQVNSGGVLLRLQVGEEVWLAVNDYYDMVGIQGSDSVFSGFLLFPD

- EC50 (read off the curve): 30 nM
Substance: control human IgG1 antibody
